# In patent US20260028398A1 (SUZHOU DIMA BIOTECHNOLOGY, published 2026):
# Target: T1, human GPRC5D (human, UniProt Q9NZD1 1-345)
# T1 construct: whole, on cells; Target always presented on cells (K562-GPRC5D, RPMI 8226, MM.1S, NCI-H929); also called GPRC5D protein
# Assay: flow cytometry, IgG1 antibody titrated on K562-GPRC5D cells
# T1 sequence (Q9NZD1 whole entry): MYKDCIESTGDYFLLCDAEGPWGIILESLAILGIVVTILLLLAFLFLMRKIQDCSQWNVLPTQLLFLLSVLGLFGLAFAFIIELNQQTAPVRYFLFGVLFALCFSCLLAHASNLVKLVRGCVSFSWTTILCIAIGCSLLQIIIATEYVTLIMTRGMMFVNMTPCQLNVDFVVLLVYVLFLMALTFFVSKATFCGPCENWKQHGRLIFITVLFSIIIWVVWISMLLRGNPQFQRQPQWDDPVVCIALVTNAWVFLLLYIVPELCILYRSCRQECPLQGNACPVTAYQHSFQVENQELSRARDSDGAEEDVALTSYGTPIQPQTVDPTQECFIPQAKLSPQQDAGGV
row,binding result,Binder
1,binds,"G02 humanized IgG1-type antibody (native structure) (antibody, V domains shown) VH: EVQLVESGGGLVQPGGSLRLSCTASGFSLSSNAMSWVRQAPGKGLEWIGSIGRSGSTYNANWAKGRFTISRDNSKNTVYLQMNSLRAEDTAVYFCAKFTGGVSGGYFSVWGPGTLVTVSS VL: DIQMTQSPSTLSASVGDRVIINCQASQSVYNNNLLSWYQQKPGKAPKLLIYAASNLASGVPSRFSGSGSGAEFTLTISSLQPDDFATYYCQGYYGGAICAFGQGTKLTVL"
2,binds,"G05 humanized IgG1-type antibody (native structure) (antibody, V domains shown, also called G05-mAb) VH: EVQLVESGGGLVQPGGSLRLSCAASGFSLTDNGITWVRQAPGKGLEWIGIMTTGGSTYYAGWAKGRFTISRDNSKNTLYLQMNSLRAEDTATYFCTRGYGIHGLWGPGTLVTVSS VL: DIQMTQSPSSLSASVGDRVTITCQASESISKFLSWYQQKPGKVPKLLIYRASTLASGVPSRFSGSGSGTDFTLTISSLQPEDVATYYCQGYDGSSTTTNYESAFGQGTKLTVL"
3,binds,"G09 humanized IgG1-type antibody (native structure) (antibody, V domains shown, also called G09-mAb) VH: EVQLVESGGGLVQPGGSLRLSCAASGFSLSNNGITWVRQAPGKGLEWIGIITTTGSAYYAGWAKGRFTISRDNSKNTLYLQMNSLRAEDTAVYYCARGYGIHGLWGPGTLVTVSS VL: DIQMTQSPSSLSASVGDRVTITCQASESISNYLSWYQQKPGKVPKLLIYRASTLASGVPSRFSGSGSGTDFTLTISSLQPEDVATYYCQGYDGSASSSNYESAFGQGTKLTVL"
4,binds,"G07 humanized IgG1-type antibody (native structure) (antibody, V domains shown, also called G07-mAb) VH: EVQLVESGGGLVQPGGSLRLSCAASGFSLTDNGITWVRQAPGKGLEWIGIMTTGGTTYYAGWAKGRFTISRDNSKNTLYLQMNSLRAEDTAVYYCARGYGIHGLWGPGTLVTVSS VL: DIQMTQSPSSLSASVGDRVTITCQASESVSKFLSWYQQKPGKVPKLLIYRASTLASGVPSRFSGSGSGTDFTLTISSLQPEDVATYYCQGYDGSSTTTNYESAFGQGTKLTVL"

# Target: T1, human GPRC5D
# Assay: flow cytometry, scFv-hFc titrated on K562-GPRC5D and RPMI 8226 cells; G00 told only as the weaker comparator
row,binding result,Binder
1,binds,"control antibody G00 (MCARH109) as scFv-hFc IgG1 format antibody (Fc fusion, also called GOO; G00 scFv-hFc; not shown: human IgG1 Fc (hFc) of the scFv-hFc vector) QSALTQPASVSGSPGQSITISCTGTSSDVGGYNYVSWYQQHPGKAPKLMIYDVSKRPSGVSNRFSGSKSGNTASLTISGLQAEDEADYYCSSYTRSSTEVFGGGTKLTVLGSRGGGGSGGGGSGGGGSLEMAEVQLVQSGAEVKKPGASVKVSCKASGYTFTSYYMHWVRQAPGQGLEWMGIINPSGGSTSYAQKFQGRVTMTRDTSTSTVYMELSSLRSEDTAVYYCARGGSKKWSGEKWRRENFDYWGQGTLVTVSS"

# Target: T1, human GPRC5D
# Assay: flow cytometry, bispecific antibody titrated on NCI-H929 cells, APC anti-human IgG
# Experimental: NCI-H929 and Jurkat cells were cultured for 48 hours, counted, and plated at a density of 2×10⁵ cells in 96-well V-bottom plates. The bispecific antibodies were serially diluted in PBS, with Talquetamab used as a positive control. The starting concentration was 100 μg/ml, followed by 1:5, 1:2, 1:2, 1:2, 1:2, 1:2, 1:2, 1:2 serial dilutions, resulting in […] for testing. 100 μl of proteins was added to each well with 200,000 cells. The BsAb was incubated with cells at 4° C. for 1 hour, washed three times with PBS and 0.2% FBS, and then APC-conjugated anti-human IgG mAb was added to each well. The cells were incubated with the secondary antibody for 1 hour at 4° C., washed three times again with PBS and 0.2% FBS, and then analyzed using flow cytometry.
row,binding result,Binder
1,binds,"G05 BsAb (GPRC5D&CD3 bispecific antibody) (bispecific antibody, not shown: human kappa constant region of vector pTT5-hKappa) DIQMTQSPSSLSASVGDRVTITCQASESISKFLSWYQQKPGKVPKLLIYRASTLASGVPSRFSGSGSGTDFTLTISSLQPEDVATYYCQGYDGSSTTTNYESAFGQGTKLTVLGGGGSGGGGSGGGGSEVQLVESGGGLVQPGGSLRLSCAASGFSLTDNGITWVRQAPGKGLEWIGIMTTGGSTYYAGWAKGRFTISRDNSKNTLYLQMNSLRAEDTATYFCTRGYGIHGLWGPGTLVTVSSDKTHTCPPCPAPELLGGPSVFLFPPKPKDTLMISRTPEVTCVVVDVSHEDPEVKFNWYVDGVEVHNAKTKPREEQYNSTYRVVSVLTVLHQDWLNGKEYKCKVSNKALPAPIEKTISKAKGQPREPQVCTLPPSREEMTKNQVSLSCAVKGFYPSDIAVEWESNGQPENNYKTTPPVLDSDGSFFLVSKLTVDKSRWQQGNVFSCSVMHEALHNHYTQKSLSLSPGK heavy: not shown light: QAVVTQEPSLTVSPGGTVTLTCGSSTGAVTTSNYANWVQEKPGQAFRGLIGGTNKRAPGTPARFSGSLLGGKAALTLSGAQPEDEAEYYCALWYSNLWVFGGGTKLTVL"
2,binds,"G00 BsAb (GPRC5D&CD3 bispecific antibody with the control scFv G00) (bispecific antibody, also called GOO; not shown: human kappa constant region of vector pTT5-hKappa) QSALTQPASVSGSPGQSITISCTGTSSDVGGYNYVSWYQQHPGKAPKLMIYDVSKRPSGVSNRFSGSKSGNTASLTISGLQAEDEADYYCSSYTRSSTEVFGGGTKLTVLGSRGGGGSGGGGSGGGGSLEMAEVQLVQSGAEVKKPGASVKVSCKASGYTFTSYYMHWVRQAPGQGLEWMGIINPSGGSTSYAQKFQGRVTMTRDTSTSTVYMELSSLRSEDTAVYYCARGGSKKWSGEKWRRENFDYWGQGTLVTVSSDKTHTCPPCPAPELLGGPSVFLFPPKPKDTLMISRTPEVTCVVVDVSHEDPEVKFNWYVDGVEVHNAKTKPREEQYNSTYRVVSVLTVLHQDWLNGKEYKCKVSNKALPAPIEKTISKAKGQPREPQVCTLPPSREEMTKNQVSLSCAVKGFYPSDIAVEWESNGQPENNYKTTPPVLDSDGSFFLVSKLTVDKSRWQQGNVFSCSVMHEALHNHYTQKSLSLSPGK heavy: not shown light: QAVVTQEPSLTVSPGGTVTLTCGSSTGAVTTSNYANWVQEKPGQAFRGLIGGTNKRAPGTPARFSGSLLGGKAALTLSGAQPEDEAEYYCALWYSNLWVFGGGTKLTVL"
3,binds,"G09 BsAb (GPRC5D&CD3 bispecific antibody) (bispecific antibody, not shown: human kappa constant region of vector pTT5-hKappa) DIQMTQSPSSLSASVGDRVTITCQASESISNYLSWYQQKPGKVPKLLIYRASTLASGVPSRFSGSGSGTDFTLTISSLQPEDVATYYCQGYDGSASSSNYESAFGQGTKLTVLGGGGSGGGGSGGGGSEVQLVESGGGLVQPGGSLRLSCAASGFSLSNNGITWVRQAPGKGLEWIGIITTTGSAYYAGWAKGRFTISRDNSKNTLYLQMNSLRAEDTAVYYCARGYGIHGLWGPGTLVTVSSDKTHTCPPCPAPELLGGPSVFLFPPKPKDTLMISRTPEVTCVVVDVSHEDPEVKFNWYVDGVEVHNAKTKPREEQYNSTYRVVSVLTVLHQDWLNGKEYKCKVSNKALPAPIEKTISKAKGQPREPQVCTLPPSREEMTKNQVSLSCAVKGFYPSDIAVEWESNGQPENNYKTTPPVLDSDGSFFLVSKLTVDKSRWQQGNVFSCSVMHEALHNHYTQKSLSLSPGK heavy: not shown light: QAVVTQEPSLTVSPGGTVTLTCGSSTGAVTTSNYANWVQEKPGQAFRGLIGGTNKRAPGTPARFSGSLLGGKAALTLSGAQPEDEAEYYCALWYSNLWVFGGGTKLTVL"
4,binds,"G07 BsAb (GPRC5D&CD3 bispecific antibody) (bispecific antibody, not shown: human kappa constant region of vector pTT5-hKappa) DIQMTQSPSSLSASVGDRVTITCQASESVSKFLSWYQQKPGKVPKLLIYRASTLASGVPSRFSGSGSGTDFTLTISSLQPEDVATYYCQGYDGSSTTTNYESAFGQGTKLTVLGGGGSGGGGSGGGGSEVQLVESGGGLVQPGGSLRLSCAASGFSLTDNGITWVRQAPGKGLEWIGIMTTGGTTYYAGWAKGRFTISRDNSKNTLYLQMNSLRAEDTAVYYCARGYGIHGLWGPGTLVTVSSDKTHTCPPCPAPELLGGPSVFLFPPKPKDTLMISRTPEVTCVVVDVSHEDPEVKFNWYVDGVEVHNAKTKPREEQYNSTYRVVSVLTVLHQDWLNGKEYKCKVSNKALPAPIEKTISKAKGQPREPQVCTLPPSREEMTKNQVSLSCAVKGFYPSDIAVEWESNGQPENNYKTTPPVLDSDGSFFLVSKLTVDKSRWQQGNVFSCSVMHEALHNHYTQKSLSLSPGK heavy: not shown light: QAVVTQEPSLTVSPGGTVTLTCGSSTGAVTTSNYANWVQEKPGQAFRGLIGGTNKRAPGTPARFSGSLLGGKAALTLSGAQPEDEAEYYCALWYSNLWVFGGGTKLTVL"

# Target: T1, human GPRC5D
# Assay: flow cytometry, scFv-hFc at 20 ug/ml on MM.1S and NCI-H929 cells
row,binding result,Binder
1,binds,"G05 scFv-hFc humanized IgG1 format antibody (Fc fusion, not shown: human IgG1 Fc (hFc) of the scFv-hFc vector) DIQMTQSPSSLSASVGDRVTITCQASESISKFLSWYQQKPGKVPKLLIYRASTLASGVPSRFSGSGSGTDFTLTISSLQPEDVATYYCQGYDGSSTTTNYESAFGQGTKLTVLGGGGSGGGGSGGGGSEVQLVESGGGLVQPGGSLRLSCAASGFSLTDNGITWVRQAPGKGLEWIGIMTTGGSTYYAGWAKGRFTISRDNSKNTLYLQMNSLRAEDTATYFCTRGYGIHGLWGPGTLVTVSS"
2,binds,"G07 scFv-hFc humanized IgG1 format antibody (Fc fusion, not shown: human IgG1 Fc (hFc) of the scFv-hFc vector) DIQMTQSPSSLSASVGDRVTITCQASESVSKFLSWYQQKPGKVPKLLIYRASTLASGVPSRFSGSGSGTDFTLTISSLQPEDVATYYCQGYDGSSTTTNYESAFGQGTKLTVLGGGGSGGGGSGGGGSEVQLVESGGGLVQPGGSLRLSCAASGFSLTDNGITWVRQAPGKGLEWIGIMTTGGTTYYAGWAKGRFTISRDNSKNTLYLQMNSLRAEDTAVYYCARGYGIHGLWGPGTLVTVSS"
3,binds,"G09 scFv-hFc humanized IgG1 format antibody (Fc fusion, not shown: human IgG1 Fc (hFc) of the scFv-hFc vector) DIQMTQSPSSLSASVGDRVTITCQASESISNYLSWYQQKPGKVPKLLIYRASTLASGVPSRFSGSGSGTDFTLTISSLQPEDVATYYCQGYDGSASSSNYESAFGQGTKLTVLGGGGSGGGGSGGGGSEVQLVESGGGLVQPGGSLRLSCAASGFSLSNNGITWVRQAPGKGLEWIGIITTTGSAYYAGWAKGRFTISRDNSKNTLYLQMNSLRAEDTAVYYCARGYGIHGLWGPGTLVTVSS"
4,binds,"G02 scFv-hFc humanized IgG1 format antibody (Fc fusion, not shown: human IgG1 Fc (hFc) of the scFv-hFc vector) DIQMTQSPSTLSASVGDRVIINCQASQSVYNNNLLSWYQQKPGKAPKLLIYAASNLASGVPSRFSGSGSGAEFTLTISSLQPDDFATYYCQGYYGGAICAFGQGTKLTVLGGGGSGGGGSGGGGSEVQLVESGGGLVQPGGSLRLSCTASGFSLSSNAMSWVRQAPGKGLEWIGSIGRSGSTYNANWAKGRFTISRDNSKNTVYLQMNSLRAEDTAVYFCAKFTGGVSGGYFSVWGPGTLVTVSS"
